Test results published in article PMC10278182 (2023).
One block for each binder: values may come before it.

Assays:
[1] = biological target: T1, WD40 repeat protein 5 truncation mutant lacking residues 1-22 (WDR5ΔN) (UniProt P61964 23-334); assay: short-lived events (koff-1), 0.5 [WDR5]
[2] = biological target: T1, WD40 repeat protein 5 truncation mutant …; assay: medium-lived events (koff-2), 2 [WDR5]
[3] = biological target: T1, WD40 repeat protein 5 truncation mutant …; assay: long-lived events (koff-3), 1 [WDR5]
[4] = biological target: T1, WD40 repeat protein 5 truncation mutant …; assay: medium-lived events (koff-2), 1 [WDR5]
[5] = biological target: T1, WD40 repeat protein 5 truncation mutant …; assay: long-lived events (koff-3), event durations
[6] = biological target: T1, WD40 repeat protein 5 truncation mutant …; assay: long-lived events (koff-3), 2 [WDR5]
[7] = biological target: T1, WD40 repeat protein 5 truncation mutant …; assay: long-lived events (koff-3), 0.5 [WDR5]
[8] = biological target: T1, WD40 repeat protein 5 truncation mutant …; assay: medium-lived events (koff-2), event durations
[9] = biological target: T1, WD40 repeat protein 5 truncation mutant …; assay: long-lived events (koff-3), 4 [WDR5]
[10] = biological target: T1, WD40 repeat protein 5 truncation mutant …; assay: short-lived events (koff-1), 4 [WDR5]
[11] = biological target: T1, WD40 repeat protein 5 truncation mutant …; assay: medium-lived events (koff-2), 4 [WDR5]
[12] = biological target: T1, WD40 repeat protein 5 truncation mutant …; assay: short-lived events (koff-1), 1 [WDR5]
[13] = biological target: T1, WD40 repeat protein 5 truncation mutant …; assay: short-lived events (koff-1), 0.5 [WDR5]; remark: listed apart in the source
[14] = biological target: T1, WD40 repeat protein 5 truncation mutant …; assay: short-lived events (koff-1), 2 [WDR5]
[15] = biological target: T1, WD40 repeat protein 5 truncation mutant …; assay: medium-lived events (koff-2), 4 [WDR5]; remark: listed apart in the source
[16] = biological target: T1, WD40 repeat protein 5 truncation mutant …; assay: short-lived events (koff-1), 4 [WDR5]; remark: listed apart in the source
[17] = biological target: T1, WD40 repeat protein 5 truncation mutant …; assay: long-lived events (koff-3), 4 [WDR5]; remark: listed apart in the source
[18] = biological target: T1, WD40 repeat protein 5 truncation mutant …; assay: long-lived events (koff-3), 0.5 [WDR5]; remark: listed apart in the source
[19] = biological target: T1, WD40 repeat protein 5 truncation mutant …; assay: long-lived events (koff-3), 1 [WDR5]; remark: listed apart in the source
[20] = biological target: T1, WD40 repeat protein 5 truncation mutant …; assay: medium-lived events (koff-2), 2 [WDR5]; remark: listed apart in the source
[21] = biological target: T1, WD40 repeat protein 5 truncation mutant …; assay: short-lived events (koff-1), event durations
[22] = biological target: T1, WD40 repeat protein 5 truncation mutant …; assay: medium-lived events (koff-2), 0.5 [WDR5]
[23] = biological target: T1, WD40 repeat protein 5 truncation mutant …; assay: short-lived events (koff-1), 1 [WDR5]; remark: listed apart in the source
[24] = biological target: T1, WD40 repeat protein 5 truncation mutant …; assay: medium-lived events (koff-2), 1 [WDR5]; remark: listed apart in the source
[25] = biological target: T1, WD40 repeat protein 5 truncation mutant …; assay: long-lived events (koff-3), 2 [WDR5]; remark: listed apart in the source

- koff [1]: 178 s⁻¹
- koff [2]: 20 s⁻¹
- koff [3]: 0.78 s⁻¹
- koff [4]: 23 s⁻¹
- koff [5]: 0.77 s⁻¹
- koff [6]: 0.77 s⁻¹
- koff [7]: 0.77 s⁻¹
- koff [8]: 20 s⁻¹
- koff [9]: 0.73 s⁻¹
- koff [10]: 167 s⁻¹
- koff [11]: 21 s⁻¹
- koff [12]: 159 s⁻¹
Binder: MGDRGPEFELGTMLNPHGAARAEVYLRPAPAPAPAPAPA (other) [O(PA)6 nanopore sensor (adaptor O - MLL4Win - (PA)6 tether - tFhuA)]

- koff [8]: 34 s⁻¹
- koff [21]: 210 s⁻¹
Binder: MGDRGPEFELGTMLNPHGAARAEVYLRPAPAPA (other) [O(PA)3 nanopore sensor (adaptor O - MLL4Win - (PA)3 tether - tFhuA)]

Continued, binder first:

Binder: MGDRGPEFELGTMLNPHGAARAEVYLRGGSGGSGGSGGS (other) [O(GGS)4 nanopore sensor (adaptor O - MLL4Win - (GGS)4 tether - tFhuA)]
- koff [13]: 84 s⁻¹
- koff [14]: 87 s⁻¹
- koff [15]: 9.5 s⁻¹
- koff [16]: 81 s⁻¹
- koff [17]: 0.79 s⁻¹
- koff [18]: 0.84 s⁻¹
- koff [5]: 0.77 s⁻¹
- koff [19]: 0.77 s⁻¹
- koff [20]: 9.9 s⁻¹
- koff [8]: 9.9 s⁻¹
- koff [21]: 87 s⁻¹
- koff [22]: 8.9 s⁻¹
- koff [23]: 91 s⁻¹
- koff [24]: 9.4 s⁻¹
- koff [25]: 0.77 s⁻¹

Binder: MGDRGPEFELGTMLNPHGAARAEVYLRGGSGGS (other) [O(GGS)2 nanopore sensor (adaptor O - MLL4Win - (GGS)2 tether - tFhuA)]
- koff [8]: 9.2 s⁻¹
- koff [21]: 86 s⁻¹
